Results as given in US20140087436.
Numbering of substitutions follows the chain as printed.

Assays:
Assay in all cases: cell_activity
[1] = target: T1, CbbR G125S/V265M (Ralstonia eutropha) (UniProt P42722); settings: beta-galactosidase, chemoheterotrophic; chemoautotrophic 6770
T1 sequence: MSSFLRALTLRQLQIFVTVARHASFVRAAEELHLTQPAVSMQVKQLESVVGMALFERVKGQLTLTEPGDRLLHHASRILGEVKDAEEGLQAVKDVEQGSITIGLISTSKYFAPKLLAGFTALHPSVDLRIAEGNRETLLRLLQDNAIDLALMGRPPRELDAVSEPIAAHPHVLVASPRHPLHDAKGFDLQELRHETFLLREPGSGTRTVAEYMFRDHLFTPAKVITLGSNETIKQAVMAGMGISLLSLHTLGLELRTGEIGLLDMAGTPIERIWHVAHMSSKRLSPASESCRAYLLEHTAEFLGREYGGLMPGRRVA

[2] = target: T2, CbbR A117V (Ralstonia eutropha) (UniProt P42722); settings: beta-galactosidase, chemoheterotrophic; chemoautotrophic 6793
T2 sequence: T1 sequence with A117V, S125G, M265V

[3] = target: T3, CbbR P221S/T299I (Ralstonia eutropha) (UniProt P42722); settings: beta-galactosidase, chemoheterotrophic; chemoautotrophic 5312
T3 sequence: T1 sequence with S125G, P221S, M265V, T299I

[4] = target: T4, CbbR E87K (Ralstonia eutropha) (UniProt P42722); settings: beta-galactosidase, chemoheterotrophic; chemoautotrophic 5515
T4 sequence: T1 sequence with E87K, S125G, M265V

[5] = target: T5, CbbR T232I (Ralstonia eutropha) (UniProt P42722); settings: beta-galactosidase, chemoheterotrophic; chemoautotrophic 5005
T5 sequence: T1 sequence with S125G, T232I, M265V

[6] = target: T6, CbbR G205D (Ralstonia eutropha) (UniProt P42722); settings: beta-galactosidase, chemoheterotrophic; chemoautotrophic 2241
T6 sequence: T1 sequence with S125G, G205D, M265V

[7] = target: T7, CbbR G205D/G118D (Ralstonia eutropha) (UniProt P42722); settings: beta-galactosidase, chemoheterotrophic; chemoautotrophic 3939
T7 sequence: T1 sequence with G118D, S125G, G205D, M265V

[8] = target: T8, CbbR P269S/T299I (Ralstonia eutropha) (UniProt P42722); settings: beta-galactosidase, chemoheterotrophic; chemoautotrophic 3879
T8 sequence: T1 sequence with S125G, M265V, P269S, T299I

cbb promoter in lacZ reporter strain
activity [1]: 53 nmol/min/mg | activity [2]: 254 nmol/min/mg | activity [3]: 655 nmol/min/mg | activity [4]: 1600 nmol/min/mg | activity [5]: 303 nmol/min/mg | activity [6]: 488 nmol/min/mg | activity [7]: 1170 nmol/min/mg | activity [8]: 617 nmol/min/mg
